Data on six molecules can be found in patent US11957762B2, “Immune tolerant and non-immune tolerant elastin-like recombinant peptides and methods of use” (University of Utah Research Foundation, priority 2015, dated 2024).

Data set [1] is described as follows: Thermally-induced reversible phase transition (turbidity OD350 vs temperature). It counts as physicochemical. The settings on record: for Tt (cooling) / Tt (heating): 25 μM in H2O. From the text:
Characterization of thermally-induced, reversible, inverse phase transition of iTEPs and the iTEPB-iTEPA-pOVA fusion. The phase transitions of iTEP or iTEP fusions were characterized by turbidity changes of sample solutions as a function of temperature. Specifically, the optical density at 350 nm (OD350) of a sample solution was monitored using an UV-visible spectrophotometer equipped with a multi-cell thermoelectric temperature controller (Cary 300, Varian Instruments, Walnut Creek, CA) while the solution was heated from 20° C. to 80° C. and then cooled to 20° C. at a rate of 1° C./min. The maximum first derivative of the turbidity curve of a sample was identified. The transition temperature (Tt) of the sample is the temperature that corresponds to the maximum derivative.

Data set [2] in a line: Hydrodynamic diameter by dynamic light scattering (DLS). It counts as physicochemical. The procedure: Characterization of the size of iTEPB-pOVA and iTEPB-iTEPA-pOVA fusions. The particle size distribution of the iTEP fusions was determined by dynamic light scattering (DLS) using a Zetasizer Nano-ZS instrument (Malvern Instruments, Malvern, UK) as previously described.^(29) The fusions were prepared at 5 μM and 25 μM in PBS and equilibrated at 37° C. for the measurement. The reported results represented the average particle size by number.
Dynamic light scattering (DLS) measurement. The measurement was carried out as previously described. iTEP, iTEP-MPBH-ABA-Sali conjugate, or PTX NP were measured at 25 μM in PBS at 37° C. using a Malvern Zetasizer Nano system (Malvern, Chester County, PA, USA).
Characterization of hydrodynamic diameters of iTEP-vaccine fusions. Hydrodynamic diameters of iTEP-vaccine fusions were determined by dynamic light scattering (DLS) using a Zetasizer Nano-ZS instrument (Malvern Instruments, Malvern, UK) as previously described (Zhao et al., Mol Pharm, 2014; 11(8):2703-12). The samples were resuspended at concentrations of 5, 25, 50, and 100 μM in PBS and sat at room temperature overnight before measurement. Some samples were kept in 5% C02 at 37° C. for 16 h before DLS measurement. Hydrodynamic diameter results of the sample of 5 μM concentration were reported because they were not affected by the used sample concentrations. Hydrodynamic diameters were presented using the size-by-number distribution approach. Z-average values and sizes-by-intensity data, however, were also reported.

The next data set concerns C57BL/6 mice. Briefly: In vivo CTL response by ELISPOT IFN-γ assay. Set-up: species or system mouse. The following applies: subcutaneous immunization twice, 2 nmol SIINFEKL equivalents per mouse with IFA. The text has this:
in vivo CTL response by ELISPOT IFN-γ assay. C57BL/6 mice were immunized subcutaneously with each immunogen (2 nmol […] equivalents per mouse) together with incomplete Freunds Adjuvants (IFA; Sigma, USA) at their left flanks. The immunization was repeated at their right flanks 1 week later. At 10 days after the second immunization, mice were sacrificed, and the spleens were harvested. The spleens of the sacrificed mice were teased into single-cell suspensions and filtered through nylon mesh […]. Red blood cells were lysed by Ammonium-Chloride-Potassium (ACK) lysing buffer. The washed and resuspended single cells were counted using Contess™ Automated Cell Counter (Invitrogen, USA). Splenocytes (8×10^6/mL) were incubated in RPMI-1640 medium supplemented with 10% heat inactivated fetal calf serum, 2 mM glutamine, 100 units/mL penicillin and 100 μg/mL streptomycin (Invitrogen, USA), in a 14 mL polypropylene tissue culture tube for 48 hours, with or without […] peptide (SEQ ID NO: 22) (2.5 μg/mL). The cells were then washed and recounted. 2×10^5 live cells in 100 μL medium were then loaded into wells of 96-well Filtration plates (Millipore, USA) coated with […] of capture anti-mouse IFN-γ mAb (Clone: R4-6A2, Biolegend, USA). Triplicates were set up for each condition. Cells were discarded after 24 hours of culture and the wells were incubated with […] of detectionbiotinylated, anti-mouse IFN-γ mAb overnight (Clone: XMG1.2-Biotin, Biolegend, USA). After the unbound antibodies were washed away from the wells, the bound antibodies were detected using horseradish peroxidase (HRP Avidin, Biolegend, USA) together with 3-amino-9-ethyl-carbazole (AEC) substrate (Sigma, USA). The membranes on the bottom of the wells were peeled off, and color spots on the membrane were scanned. The spots were automatically counted using ImageJ software.
Animal immunization. C57BL/6 mice were immunized by the subcutaneous injection of 2 nmol iTEP NP vaccines and incomplete Freunds Adjuvants (IFA; Sigma, USA) at their left flanks. Immunization was repeated at their right flanks after 1 week. On day 10 after the second immunization, mice were sacrificed, and the spleens were harvested.

Values joined by “and” are separate entries in the source; they are usually repeats but may differ in a detail not shown here. Equal entries are not always repeated.

Turning to G(VPGLGAGAG)96GG [iTEPD], in data set [1], the “Relative Hydrophobicity” value is given as “High”; the “Tt (cooling)” value stood at 35.20 ± 0.57 °C; the “Tt (heating)” value was 38.6 °C and 38.60 ± 1.20 °C. Moreover, the “(heating) Tt” value in data set [1] (5 μM) is 42.3 °C.

B1: G(GVLPGVG)28GG (protein)
chain: GGAGVPGGAGVPGGAGVPGGAGVPGGAGVPGGAGVPGGAGVPGGAGVPGGAGVPGGAGVPGGAGVPGGAGVPGGAGVPGGAGVPGGAGVPGGAGVPGGAGVPGGAGVPGGAGVPGGAGVPGGAGVPGGAGVPGGAGVPGGAGVPGGAGVPGGAGVPGGAGVPGGAGVPGGAGVPGGAGVPGGAGVPGGAGVPGGAGVPGGAGVPGGAGVPGGAGVPGGAGVPGGAGVPGGAGVPGGAGVPGGAGVPGGAGVPGGAGVPGGAGVPGGAGVPGGAGVPGGAGVPGGAGVPGGAGVPGGAGVPGGAGVPGGAGVPGGAGVPGGAGVPGGAGVPGGAGVPGGAGVPGGAGVPGGAGVPGGAGVPGGAGVPGGAGVPGGAGVPGGAGVPGGAGVPGGAGVPGGAGVPGGAGVPGGAGVPGGAGVPGGG
B1: in data set [1], the “Relative Hydrophobicity” value is “High”, the “Tt (cooling)” value came out at 29.70 ± 0.05 °C and the “Tt (heating)” value was found to be 33.30 ± 0.09 °C.

B2: iTEPB-pOVA: a fusion of the hydrophilic iTEPB and the vaccine, soluble (SEQ ID NO: 57) (protein)
chain: GAGVPGGAGVPGGAGVPGGAGVPGGAGVPGGAGVPGGAGVPGGAGVPGGAGVPGGAGVPGGAGVPGGAGVPGGAGVPGGAGVPGGAGVPGGAGVPGGAGVPGGAGVPGGAGVPGGAGVPGGAGVPGGAGVPGGAGVPGGAGVPGGAGVPGGAGVPGGAGVPGGAGVPGGAGVPGGAGVPGGAGVPGGAGVPGGAGVPGGAGVPGGAGVPGGAGVPGGAGVPGGAGVPGGAGVPGGAGVPGGAGVPGGAGVPGGAGVPGGAGVPGGAGVPGGAGVPGGAGVPGGAGVPGGAGVPGGAGVPGGAGVPGGAGVPGGAGVPGGAGVPGGAGVPGGAGVPGGAGVPGGAGVPGGAGVPGGAGVPGGAGVPGGAGVPGGAGVPGGAGVPGGAGVPGGAGVPGGAGVPGGAGVPGGAGVPGGAGVPGCGGGGGGGGCGGGGGGGGCGGGGGGGGCGGGGGGGGCGGGGGGGGCGGGGGGGGCGGGGGGGGCGGGGGGGG
Turning to B2, in data set [2] (25 μM in PBS, 37° C., by number), the “mean diameter / size (DLS)” value is “less than 10 nm”.

B3: ovalbumin (protein)
chain: GSIGAASMEFCFDVFKELKVHHANENIFYCPIAIMSALAMVYLGAKDSTRTQINKVVRFDKLPGFGDSIEAQCGTSVNVHSSLRDILNQITKPNDVYSFSLASRLYAEERYPILPEYLQCVKELYRGGLEPINFQTAADQARELINSWVESQTNGIIRNVLQPSSVDSQTAMVLVNAIVFKGLWEKAFKDEDTQAMPFRVTEQESKPVQMMYQIGLFRVASMASEKMKILELPFASGTMSMLVLLPDEVSGLEQLESIINFEKLTEWTSSNVMEERKIKVYLPRMKMEEKYNLTSVLMAMGITDVFSSSANLSGISSAESLKISQAVHAAHAEINEAGREVVGSAEAGVDAASVSEEFRADHPFLFCIKHIATNAVLFFGRCVSP
notes: positive control protein antigen
Take B3: in the data set with C57BL/6 mice, the “SIINFEKL-restricted activated splenocytes (INF-γ ELISPOT)” value is given as 61 spots per million seeded splenocytes.

B4: G(GAGVPG)70GG (protein)
chain: GVPGFGAGAGVPGFGAGAGVPGFGAGAGVPGFGAGAGVPGFGAGAGVPGFGAGAGVPGFGAGAGVPGFGAGAGVPGFGAGAGVPGFGAGAGVPGFGAGAGVPGFGAGAGVPGFGAGAGVPGFGAGAGVPGFGAGAGVPGFGAGAGVPGFGAGAGVPGFGAGAGVPGFGAGAGVPGFGAGAGVPGFGAGAGGG
With B4, in data set [1], the “Relative Hydrophobicity” value was “Low”. For the same molecule, the “temperature of coacervate formation” value in data set [1] (in H2O, tested temperature range 20-80° C.) is “did not form coacervates”.

B5: NH2-(GAGVPG)70-(…)8-COOH (protein)
chain: GGAGVPGGAGVPGGAGVPGGAGVPGGAGVPGGAGVPGGAGVPGGAGVPGGAGVPGGAGVPGGAGVPGGAGVPGGAGVPGGAGVPGGAGVPGGAGVPGGAGVPGGAGVPGGAGVPGGAGVPGGAGVPGGAGVPGGAGVPGGAGVPGGAGVPGGAGVPGGAGVPGGAGVPGGAGVPGGAGVPGGAGVPGGAGVPGGAGVPGGAGVPGGAGVPGGAGVPGGAGVPGGAGVPGGAGVPGGAGVPGGAGVPGGAGVPGGAGVPGGAGVPGGAGVPGGAGVPGGAGVPGGAGVPGGAGVPGGAGVPGGAGVPGGAGVPGGAGVPGGAGVPGGAGVPGGAGVPGGAGVPGGAGVPGGAGVPGGAGVPGGAGVPGGAGVPGGAGVPGGAGVPGGAGVPGGAGVPGGAGVPGGAGVPGGAGVPGGAGVPGGGVLPGVGGVLPGVGGVLPGVGGVLPGVGGVLPGVGGVLPGVGGVLPGVGGVLPGVGGVLPGVGGVLPGVGGVLPGVGGVLPGVGGVLPGVGGVLPGVGGVLPGVGGVLPGVGGVLPGVGGVLPGVGGVLPGVGGVLPGVGGVLPGVGGVLPGVGGVLPGVGGVLPGVGGVLPGVGGVLPGVGGVLPGVGGVLPGVGGVLPGVGGVLPGVGGVLPGVGGVLPGVGGVLPGVGGVLPGVGGVLPGVGGVLPGVGGVLPGVGGVLPGVGGVLPGVGGVLPGVGGVLPGVGGVLPGVGGVLPGVGGVLPGVGGVLPGVGGVLPGVGGVLPGVGGVLPGVGGVLPGVGGVLPGVGGVLPGVGGVLPGVGGVLPGVGGVLPGVGGVLPGVGGVLPGVGG
With B5, the “hydrodynamic diameter (DLS)” value in data set [2] (25 μM in PBS at 37° C.) is recorded as 6.63±1.25 nm.
